Data from IntAct's records for PubMed 20389281.

Assays:
[1] = biological target: snai1_human SNAI1 (UniProt O95863)
[2] = biological target: snai1_human SNAI1 (UniProt O95863); remark: listed apart in the source

Chain of snai1_human SNAI1 (O95863 whole entry): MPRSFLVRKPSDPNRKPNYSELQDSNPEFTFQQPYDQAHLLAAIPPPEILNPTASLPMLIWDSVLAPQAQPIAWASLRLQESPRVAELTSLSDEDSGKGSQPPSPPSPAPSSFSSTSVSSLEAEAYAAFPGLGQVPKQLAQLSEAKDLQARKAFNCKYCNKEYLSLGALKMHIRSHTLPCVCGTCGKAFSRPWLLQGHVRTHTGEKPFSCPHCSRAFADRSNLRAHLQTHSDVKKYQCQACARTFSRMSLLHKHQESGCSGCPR

effect of a mutation on the interaction [1] | effect of a mutation on the interaction [2] | Substance
disrupting interaction | – | Lysine-specific histone demethylase 1A (Homo sapiens) (from UniProt O60341) D375A
– | disrupting interaction | Lysine-specific histone demethylase 1A (Homo sapiens) (from UniProt O60341) D556A
disrupting interaction | – | Lysine-specific histone demethylase 1A (Homo sapiens) (from UniProt O60341) E379A

The remaining lines, values behind:

Substance | effect of a mutation on the interaction [1] | effect of a mutation on the interaction [2]
Lysine-specific histone demethylase 1A (Homo sapiens) (from UniProt O60341) D555A | – | disrupting interaction
Lysine-specific histone demethylase 1A (Homo sapiens) (from UniProt O60341) D553A | – | disrupting interaction
